We go through 1 substance from publication PMC7585203.

In this test the target is FAM-LIG1(118–130)K126me2 peptide (human). The test can be described thus: fluorescence polarisation; FAM-labelled peptide with GST-tagged domains or MBP-tagged full-length UHRF1; as described in ref. 4, plotted as change in anisotropy.

For the substance “GST-tagged chromodomain Y-like protein isoform 2 (CDYL1b) chromodomain (domain or fragment)”, the ratio of its dissociation constant to that of the UHRF1 TTD stood at 70 fold.
